# Positions of bridges follow the written chain, without caps; N, C: chain ends. Residues, ends and D or L forms follow the SMILES beside them. *: point of attachment. NOTA = O=C(O)CN1CCN(CC(=O)O)CCN(CC(=O)*)CC1; PEG4 = NCCOCCOCCOCCOCCC(=O)O
# How the values were obtained:
# integrin α6 = target: T1, integrin α6 (Homo sapiens, UniProt P23229); test: Binding of Ala-mutated peptides by ELISA (alanine scanning of RWY); conditions: relative to RWY peptide; Figure 1D,E (ELISA and in vivo blocking)
# T1 sequence (P23229 24-1130): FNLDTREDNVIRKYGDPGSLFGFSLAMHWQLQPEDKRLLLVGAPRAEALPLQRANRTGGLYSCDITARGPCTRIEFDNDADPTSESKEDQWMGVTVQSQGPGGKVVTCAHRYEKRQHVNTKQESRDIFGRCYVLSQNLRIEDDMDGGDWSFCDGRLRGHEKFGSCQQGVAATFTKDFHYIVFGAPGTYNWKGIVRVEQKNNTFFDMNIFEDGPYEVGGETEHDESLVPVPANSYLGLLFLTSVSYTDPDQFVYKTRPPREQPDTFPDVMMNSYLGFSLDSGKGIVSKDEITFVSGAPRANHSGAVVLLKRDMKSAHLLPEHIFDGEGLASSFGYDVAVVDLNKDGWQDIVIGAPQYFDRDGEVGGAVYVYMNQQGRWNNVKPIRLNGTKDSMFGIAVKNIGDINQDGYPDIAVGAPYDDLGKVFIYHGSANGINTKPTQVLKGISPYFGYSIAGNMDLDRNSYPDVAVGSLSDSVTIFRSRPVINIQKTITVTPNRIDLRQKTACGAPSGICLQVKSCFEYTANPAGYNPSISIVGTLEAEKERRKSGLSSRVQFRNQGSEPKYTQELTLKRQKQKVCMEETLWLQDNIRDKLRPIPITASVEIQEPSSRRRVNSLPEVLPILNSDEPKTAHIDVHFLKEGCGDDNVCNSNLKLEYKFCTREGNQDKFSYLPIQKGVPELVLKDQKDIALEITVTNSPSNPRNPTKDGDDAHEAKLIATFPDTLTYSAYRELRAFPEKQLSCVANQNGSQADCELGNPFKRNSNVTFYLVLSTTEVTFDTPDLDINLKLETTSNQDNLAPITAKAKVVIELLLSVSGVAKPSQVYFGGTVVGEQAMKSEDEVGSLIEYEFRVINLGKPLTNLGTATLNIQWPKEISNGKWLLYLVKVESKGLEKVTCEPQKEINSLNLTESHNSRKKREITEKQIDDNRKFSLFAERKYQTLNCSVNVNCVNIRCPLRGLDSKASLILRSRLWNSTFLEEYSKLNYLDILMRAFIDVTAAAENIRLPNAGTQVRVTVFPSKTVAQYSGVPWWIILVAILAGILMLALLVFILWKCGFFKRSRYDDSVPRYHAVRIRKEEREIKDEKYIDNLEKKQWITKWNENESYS
# Text: We selected integrin α6 as the target of PDAC as it was overexpressed in pancreatic cancer cells ^4 , ^5 and cancerous tissue of patients with PDAC ^4 , ^6 , ^7 with an overexpression rate up to 92%. ^4 Increased integrin α6 levels were associated with stronger PDAC cell invasiveness ^5 and poorer prognosis for patients. ^6 , ^7 Furthermore, the integrin α6β4 dimer was overexpressed in PanIN even at a stage as early as PanIN 1A. ^4 Here, we confirmed that integrin α6 was overexpressed in human PDAC (Figure 1A,B) and increased integrin α6 had poorer prognosis for PDAC patients (Figure 1C). Recently, a peptide CRWYDENAC (dubbed RWY) targeting integrin α6 has been identified ^8 and employed for nanotherapeutics of nasopharyngeal carcinoma ^8 and for PET imaging of hepatocellular carcinoma by our team. ^9 Here, we used the Ala scanning mutagenesis to modify the RWY peptide. R, W, and Y were the three key amino acids within the RWY peptide, since their replacement by an alanine reduced the cellular binding ability of this peptide, both in vitro and in vivo. […]
# FIGURE 1 Increased and poorer prognosis of integrin α6 in PDAC and the optimization of a peptide targeting integrin α6. […] D, The binding affinities of seven Ala‐mutated peptides were analyzed by ELISA. […]
# Sw1990 tumors = test: In vivo blocking assay of Cy5‐RWY by unlabeled peptides; conditions: i.v. 6 nmol Cy5‐RWY together with 6 μmol unlabeled peptide; mice bearing Sw1990 tumors
# Experimental: FIGURE 1 Increased and poorer prognosis of integrin α6 in PDAC and the optimization of a peptide targeting integrin α6. […] D, The binding affinities of seven Ala‐mutated peptides were analyzed by ELISA. E, The in vivo blocking assays were performed via intravenous injection of 6 nmol of Cy5‐RWY together with 6 μmol of the unlabeled RWY peptide, or its scrambled peptide or a set of its alanine‐scanning mutant peptides into mice bearing Sw1990 tumors. […] F and G, Sw1990 cells were incubated with Cy5‐RWY and Cy5‐S5 at 37°C for 30 min, and the integrin α6‐binding affinities of Cy5‐RWY and Cy5‐S5 were analyzed by flow cytometric analysis (F); the fluorescence intensity of the S5 group presented as relative (1.41 ± 0.03) fold over RWY, indicating a higher tumor cell‐binding ability of S5. H and I To further investigate the in vivo tumor‐binding ability of the S5 peptide, Cy5‐S5, Cy5‐RWY, and Cy5‐CG7C (negative control) were synthesized and used in NIRF.
# in vivo = assay type: in vivo, mouse; conditions: mouse, in vivo, iv
# Experimental: (§1) Approximately 3.7 × 10^6 Bq (100 μCi) of ^18F‐S5 was intravenously injected to a mouse for PET imaging, and 2.5 mmol/kg of gadolinium‐diethylenetriamine pentaacetic acid was injected for enhanced MR imaging. After 120 min postinjection of ^18F‐S5, PET/MR imaging was obtained by using a hybrid 3.0T PET/MR scanner (uPMR 790; UIH, Shanghai, China).
# (§2) However, in the PET/MR imaging, ^18F‐S5 produced high PET signals in the possible location of the tumor (Figure 2A). The uptake of ^18F‐S5 in tumor was quantified as 4.34 ± 1.16 %ID/g (a percentage of the injected dose per gram) (n = 5) and the tumor‐to‐muscle ratio was 4.32 ± 0.65 (Figure 2B). […] The overexpression of integrin α6 in the spontaneously developed PDAC tissue was confirmed using immunohistochemistry (Figure 2D). In addition, ^18F‐S5‐PET/MR imaging could also detect metastatic tumors in KPC, where ^18F‐S5 produced high PET signals in both of the PDAC lesions and the metastatic tumors in the abdominal cavity (Figure S4A‐D). […] Immunohistochemical analysis confirmed the formation of PanIN lesions in the pancreas and increased integrin α6 expression in lesion tissues (Figure 2H).
# (§3) FIGURE 2 ^18F‐S5 PET/MR imaging in PDAC and PanIN mouse models. A, Representative cross‐sectional images of PET/MR imaging with ^18F‐S5 of KPC mouse (left) and the 3D image (right). B, Quantification of ^18F‐S5 uptake (%ID/g) by KPC mouse in tumor (4.34 ± 1.16), muscle (1.00 ± 0.17), liver (1.24 ± 0.33), and heart (2.38 ± 0.45), respectively. […] D, The development of PDAC in KPC mouse was confirmed by HE staining (left), and increased integrin α6 expression was confirmed by immunohistochemistry (right). E, Representative cross‐sectional images of PET/MR imaging of KC mouse (left) and the MIP reconstructed image (right). F, Quantification of ^18F‐S5 uptake (%ID/g) by KC mouse in PanIN tissue (2.99 ± 0.52), muscle (0.89 ± 0.13), liver (1.31 ± 0.22), and heart (2.43 ± 0.35), respectively. […] H, The development of PanIN in mice was confirmed by HE staining (left), and the overexpression of integrin α6 in the lesion was analyzed using immunohistochemistry (right) (red arrow: PanIN; black arrow: relatively normal pancreatic tissue) (mean ± SD, the difference was evaluated by Student's t‐test, *P < .05, **P < .01, ***P < .001)
# PanIN = test: in vivo; assay type: in vivo, mouse; conditions: KC mouse, PET 120 min postinjection; mean ± SD
# Experimental: as §1, §2, §3
# [1] = system: spontaneously developed PDAC; test: in vivo; assay type: in vivo, mouse; conditions: KPC mouse, PET 120 min postinjection; n = 5, mean ± SD
# Experimental: as §1, §2, §3
# [2] = in vivo
# Experimental: as §1
enhanced tumor binding ability (integrin α6),Molecule,blocking effect on Cy5‐RWY (Sw1990 tumors),"tissue uptake at 2 h (in vivo; KC (LSL-Kras^G12D/+; Pdx1-Cre), uptake in heart) [%ID/g]","tissue uptake at 2 h (in vivo; KC (LSL-Kras^G12D/+; Pdx1-Cre), uptake in liver) [%ID/g]","tissue uptake at 2 h (in vivo; KC (LSL-Kras^G12D/+; Pdx1-Cre), uptake in muscle) [%ID/g]","tissue uptake at 2 h (in vivo; KPC (LSL-Kras^G12D/+; Pdx1-Cre; Trp53^fl/fl), uptake in heart) [%ID/g]","tissue uptake at 2 h (in vivo; KPC (LSL-Kras^G12D/+; Pdx1-Cre; Trp53^fl/fl), uptake in liver) [%ID/g]","tissue uptake at 2 h (in vivo; KPC (LSL-Kras^G12D/+; Pdx1-Cre; Trp53^fl/fl), uptake in muscle) [%ID/g]",uptake in PanIN tissue (PanIN) [%ID/g],uptake in tumor [1] [%ID/g],uptake in tumor tissues compared with other tissues and organs [2]
approximately 1.5 fold,"CRWYDANAC [S5, peptide …, alanine substitution of E in RWY]",highest blocking effect,–,–,–,–,–,–,–,–,–
–,C[C@@H]1NC(=O)[C@H](CC(N)=O)NC(=O)[C@H](C)NC(=O)[C@H](CC(=O)O)NC(=O)[C@H](Cc2ccc(O)cc2)NC(=O)[C@H](Cc2c[nH]c3ccccc23)NC(=O)[C@H](CCCNC(=N)N)NC(=O)[C@@H](NC(=O)CCOCCOCCOCCOCCNC(=O)CN2CCN(CC(=O)O)CCN(CC(=O)O)CC2)CSSC[C@@H](C(=O)O)NC1=O [^18F‐S5] ({NOTA-PEG4}-CRWYDANAC-OH; disulfide 1-9 (inferred); N-terminus and C-terminus assumed),–,2.43 ± 0.35,1.31 ± 0.22,0.89 ± 0.13,2.38 ± 0.45,1.24 ± 0.33,1 ± 0.17,2.99 ± 0.52,4.34 ± 1.16,the highest among all collected tissues and organs except for the kidney
